Assay results taken from publication PMC4326804.
Several values for one entry are separate records, joined by “and”; a condition that tells them apart may be missing. Equal values may be shown once.

Key:
[1] = biological target: His6-tagged nucleocapsid (N) protein of tomato spotted wilt virus (TSWV) (tomato spotted wilt virus (Yunnan isolate)); assay: cross-linking; 30 ug purified N protein with increasing glutaraldehyde, 37 °C for 5 min, quenched with Tris-HCl pH 7.5; 5-20% SDS-PAGE, Coomassie staining; self-association
[2] = biological target: free-tag TSWV N protein (tomato spotted wilt virus (Yunnan isolate)); assay: native gel or EMSA; 4-16% discontinuous blue native PAGE at 4 °C, cathode buffer 100 mM histidine pH 8.0 with 0.002% Coomassie G-250; purified N protein without PEI treatment (carries E. coli RNA); self-association

Substance | stoichiometry N [1] | stoichiometry N [2]
His6-tagged nucleocapsid (N) protein of tomato spotted wilt virus (TSWV) (natural protein) | > 3 and 2 and 3 | 
free-tag TSWV N protein (natural protein) |  | 2 and 3 and 4
